According to patent US20260109761A1 (IP2IPO INNOVATIONS, published 2026):

Legend:
[1] = biological target: T1, huZIP12-ECD-GST (human, UniProt Q504Y0 24-202); experiment: SPR single cycle kinetics (Biacore): mAb captured on protein A, ZIP12-ECD-GST injected; average data
T1 construct: also called hZIP12-ECD-GST; human ZIP12-ECD-GST; not shown: glutathione S-transferase (GST) tag

[2] = biological target: T2, cynomolgus monkey ZIP12-ECD-GST (cynomolgus monkey, UniProt Q95KA5 24-207); experiment: as above
T2 construct: extracellular domain; also called cyno ZIP12 fusion protein; cynomolgus monkey ZIP12-GST-ECD; not shown: glutathione S-transferase (GST) tag

[3] = biological target: T1, huZIP12-ECD-GST; experiment: SPR single cycle kinetics (Biacore): mAb captured on protein A, huZIP12-ECD-GST injected at 3.12-800 nM
Protocol: (§1) Single Cycle Kinetics (SCK) involves first capturing the mAb onto the protein A sensor surface and then sequentially injecting a series of concentrations of huZIP12-ECD-GST over the surface starting at the lowest concentration and ending with the highest concentration. The final concentration is followed by a dissociation phase where buffer only is passed across the surface followed by regeneration, where the remaining bound huZIP12-ECD-GST is removed from the surface by injection of a 10 mM Glycine pH 1.5 and 50 mM NaOH solution. The SCK is repeated for each monoclonal antibody providing duplicate data and the kinetics of each interaction is evaluated by the Biacore software.
(§2) Referring to FIG. 6, there are shown the kinetic parameters obtained for all antibody variants when screened with the 3.12 nM to 800 nM huZIP12-ECD-GST. […] Affinity.

[4] = biological target: T1, huZIP12-ECD-GST; experiment: SPR single cycle kinetics, mAb captured on protein A, 3.12-800 nM huZIP12-ECD-GST
Protocol: as §1, §2

[5] = biological target: T2, cynomolgus monkey ZIP12-ECD-GST; experiment: SPR single cycle kinetics, mAb captured on protein A, ZIP12-ECD-GST injected; cynomolgus monkey ZIP12-ECD-GST; Example 8 cross-species SCK (FIG. 12 average)
Excerpt: as §1, with “Surface plasmon resonance (SPR) is a label free biophysical technique that allows the direct measurement of biomolecular interactions. A single cycle kinetics (SCK) SPR direct binding assay was developed to characterise antibody binding to human, cyno, pig and canine ZIP12 fusion proteins. This assay was used to characterise the binding kinetics of the monoclonal antibody, 51B12 W99H_L1 against each of the four proteins (defined by kon, koff, KD). Single” for “Single”, “of ZIP12-ECD-GST” for “of huZIP12-ECD-GST”

[6] = biological target: T3, BETA22 31-52 SEQ ID No: 248 (not fully specified); experiment: peptide-array ELISA on mimics of the human ZIP12 ECD (peroxidase conjugate, ABTS, CCD read-out); antibody concentration of this value not given
T3 construct: beta-turn mimic
T3 peptide: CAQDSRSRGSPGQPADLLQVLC
Protocol: (§3) The binding of antibody to each of the synthesized peptides was tested in a peptide-based ELISA. The peptide arrays were incubated with primary antibody solution (overnight at 4° C.). After washing, the peptide arrays were incubated with a 1/1000 dilution of an appropriate antibody peroxidase conjugate for one hour at 25° C. After washing, the peroxidase substrate 2,2′-azino-di-3-ethylbenzthiazoline sulfonate (ABTS) and […] of 3 percent H2O2 were added. After one hour, the colour development was measured. The colour development was quantified with a charge coupled device—camera and an image processing system.

[7] = biological target: T4, LIN15 36-50 SEQ ID No: 225; experiment: as above
T4 peptide: SRGSSGQPADLLQVL
Protocol: as §3

[8] = biological target: T5, HEL19 37-55 SEQ ID No: 244; experiment: as above
T5 construct: alpha-helical mimic
T5 peptide: CRGSCGQPADLLQVLSAGD
Protocol: as §3

[9] = biological target: T6, LOOP15 36-50 SEQ ID No: 239; experiment: as above
T6 construct: constrained mimic
T6 peptide: CSRGSSGQPADLLQC
Protocol: as §3

[10] = biological target: T7, BETA22 32-53 SEQ ID No: 249 (not fully specified); experiment: as above
T7 construct: beta-turn mimic
T7 peptide: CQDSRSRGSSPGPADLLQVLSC
Protocol: as §3

[11] = biological target: T8, HEL19 38-56 SEQ ID No: 245; experiment: as above
T8 construct: alpha-helical mimic
T8 peptide: CGSSCQPADLLQVLSAGDH
Protocol: as §3

[12] = biological target: T9, LOOP15 35-49 SEQ ID No: 238; experiment: as above
T9 construct: constrained mimic
T9 peptide: CRSRGSSGQPADLLC
Protocol: as §3

[13] = biological target: T10, LIN15 37-51 SEQ ID No: 226; experiment: as above
T10 peptide: RGSSGQPADLLQVLS
Protocol: as §3

[14] = biological target: T11, HEL19 31-49 SEQ ID No: 241; experiment: as above
T11 construct: alpha-helical mimic
T11 peptide: CAQDCRSRGSSGQPADLLQ
Protocol: as §3

T1 sequence (Q504Y0 24-202): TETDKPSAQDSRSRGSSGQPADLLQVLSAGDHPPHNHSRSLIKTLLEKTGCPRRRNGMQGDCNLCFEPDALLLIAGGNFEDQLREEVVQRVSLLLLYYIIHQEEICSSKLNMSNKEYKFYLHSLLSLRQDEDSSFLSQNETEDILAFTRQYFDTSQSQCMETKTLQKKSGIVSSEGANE
T2 sequence (Q95KA5 24-207): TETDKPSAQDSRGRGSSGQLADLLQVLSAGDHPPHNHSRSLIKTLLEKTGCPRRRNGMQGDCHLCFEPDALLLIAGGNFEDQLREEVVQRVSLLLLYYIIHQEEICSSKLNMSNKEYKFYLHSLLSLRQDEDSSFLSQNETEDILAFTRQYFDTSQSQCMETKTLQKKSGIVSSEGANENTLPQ

B1: H3_W99H_L1 (antibody, V domains shown)
VH: QVQLVESGGGVVQPGRSLRLSCAASGFTFSDYGMHWVRQAPGKGLEWVAYISSGGTTIYYADTVKGRFTISRDNSKNTLYLQMNSLRAEDTAVYYCARHTNLYAMDYWGQGTTVTVSS
VL: DIVLTQSPDSLAVSLGERATINCRASKSVSTQGYSYMHWYQQKPGQPPKFLIYLASNLESGVPDRFSGSGSGTDFTLTISSLQAEDVAVYYCQHSREVPYTFGGGTKVEIKR
notes: Fc null human IgG1 / human kappa
B1 was tested, and the koff [1] was 0.000261 s⁻¹, the kon [1] was 64900 M⁻¹ s⁻¹ and the koff [2] was 0.000218 s⁻¹. The kon [2] was 34600 M⁻¹ s⁻¹, the Kd [3] was 533 pM and the koff [3] was 4.98e-05 s⁻¹. It also gave a kon [3] of 93400 M⁻¹ s⁻¹, a Kd [4] of about 500 pM and a Kd [5] of 6310 pM. It also gave a value [6] of 2440, a value [7] of 2650 and a value [8] of 2760. The value [9] was 976, the value [10] was 1350 and the value [11] was 828. It also gave a value [12] of 901, a value [13] of 2570 and a value [14] of 1700.
